Experimental data as given in patent CN102050878A (NAT ENGINEERING RES CT OF ANTIBODY MEDICINE SHANGHAI CO LTD, dated 2011).

Molecular target: T1, 人CD20 (Raji细胞表面) (human, UniProt P11836 1-297)
T1 construct: whole, on cells; The target is native on the B lymphoma lines Raji (and Daudi); No recombinant CD20 was used; also called 高表达CD20的Raji细胞
T1 sequence (looked up): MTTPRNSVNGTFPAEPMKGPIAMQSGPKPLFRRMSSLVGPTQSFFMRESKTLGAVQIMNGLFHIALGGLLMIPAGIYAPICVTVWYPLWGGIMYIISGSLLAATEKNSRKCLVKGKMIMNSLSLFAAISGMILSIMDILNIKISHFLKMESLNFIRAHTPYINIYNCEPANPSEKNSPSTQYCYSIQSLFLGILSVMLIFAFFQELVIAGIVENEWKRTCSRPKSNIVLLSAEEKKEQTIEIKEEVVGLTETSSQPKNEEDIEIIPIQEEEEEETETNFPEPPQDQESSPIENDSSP
Test: in vitro antigen binding assay, flow cytometry on Raji cells

binding result: binds
B1: 抗人CD20人源化抗体hu3D9 (hu3D9Hb/hu3D9Lb) (antibody, human IgG1, kappa, V domains shown)
VH: EVQLVESGGGLVQPGGSLRLSCAASGYTFTNYWMQWVRQAPGQGLEWISAIYPGDGDTRYTQKFKGRATLSADKSKNTAYLQMNSLRAEDTAVYYCAREGAYGYDDGMDYWGQGTLVTVSS
VL: DIVLTQSPSSLSASVGDRVTITCRASQSIRNNLHWYQQKPGKAPKLLIKYASQSISGVPSRFSGSGSGTDFTLTISSLQPEDFATYYCQQSNSWPLTFGQGTKVEIKR
notes: Humanised antibody with 12 mouse framework residues kept
